US6015560, “Antibody recognizing endothelial cell ligand for leukocyte CR3” (The Rockfeller University, dated 2000)

B1: FHA peptide G (peptide)
peptide: IVVEAGELVSHAGGIGNGRNKENGASVTVRTTGNLVNKGYISAGKQGVLEVGGAL

Key:
[1] = target: T1, integrin complement receptor 3 (CR3) on human leukocytes (human, UniProt P11215); assay: macrophages spread on peptide-coated wells; residual CD11b/CD18 detected with C3bi-coated erythrocytes
[2] = target: T1, integrin complement receptor 3 (CR3) on …; assay: cell-based or functional assay

Binder | binding result [1] | inhibition of adherence of human neutrophils to cultured endothelial cells [2] [%]
AADPHQGVLAQGDIIMDAKG [FHA peptide Cc] | no binding (tested: wells coated with 0.5 mM peptide) | 
B1 |  | < 15
RQDFFTPGSVVVRAQGNVTVGRGDPHQGVLAQGDIIMDAKGGTLL [FHA peptide B] |  | 29
GTLLLRNDALTENGTVTISA [FHA peptide Cd] | no binding (tested: wells coated with 0.5 mM peptide) | 
IGALKAGAVEAASPRRAARRALRQDFFTPGSVVVRAQGNYTVGRGD [FHA peptide A] |  | < 15
LEHSTIESKISQSVLAAKGDKGKPAVSVKVAKKLFLNGTLRAVND [FHA peptide D] |  | < 15
RGDPHQGVLAQGDIIMDAKGGTLLLRNDALTENGTVTISADSAVL [FHA peptide C] |  | 62
AKKLFLNGTLRAVNDNNETMSGRQIDVVDGRPQITDAVTGEARKD [FHA peptide E] |  | < 15
RPQITDAVTGEARKDESVVSDAALVADGGPIVVEAGELVSHAGGI [FHA peptide F] |  | < 15
RADPHQGVLAQGDIIMDAKG [FHA peptide Cb] | no binding (tested: wells coated with 0.5 mM peptide) | 
